Assays:
Collagen type II = molecular target: T1, Collagen type II (Homo sapiens, UniProt P02458); assay: BbHtrA proteolysis assay, collagen type II substrate; type: biochemical; conditions: SDS-PAGE, silver stain
T1 construct: Native collagen II and recombinant tenascin C were not degraded by BbHtrA; from tissue
Description: (§1) For proteolysis assays described in Examples herein, purified protein substrates (200-600 nM) and proteases (100-150 nM) were diluted in assay buffer (50 mM HEPES, pH 7.4, 5 mM CaCl2) and incubated overnight at 37° C. Samples were boiled for 4 minutes to inactivate the proteases. Proteoglycans were deglycosylated by overnight incubation at 37° C. with 0.01 U chondroitinase ABC (Seikagaku). Reactions were stopped by the addition of SDS/PAGE sample buffer, boiled for 4 minutes, and electrophoresed on pre-cast Tris-glycine gels (BioRad). Reaction products were visualized by silver staining.
(§2) Purified proteins were incubated with BbHtrA or BbHtrA^S226A as described herein. HtrA (also known as DegP) proteases belong to the family of serine proteases which contain a highly reactive serine residue in their active site. This serine (Ser210 in DegP) is part of the canonical His-Ser-Asp catalytic triad and mutation of the catalytic serine abolishes proteolytic activity (Skorko-Glonek et al., 1995). In BbHtrA, residues His119, Ser226 and Asp149 form the catalytic triad and mutation of serine 226 to alanine abolished proteolytic activity as expected (FIG. 5).
(§3) Reaction products were separated by SDS-PAGE and silver stained. Native collagen II and recombinant tenascin C were not degraded by BbHtrA indicating selectivity for proteoglycans, E-cadherin and fibronectin. […]

Aggrecan = molecular target: T2, Aggrecan (Bos taurus, UniProt P13608); assay: BbHtrA proteolysis assay, aggrecan substrate; type: biochemical, bovine, human; conditions: native bovine aggrecan, SDS-PAGE, FIG. 4B
T2 construct: recombinant human aggrecan (G1-IGD-G2 domains)
T2 sequence (P13608 17-2364): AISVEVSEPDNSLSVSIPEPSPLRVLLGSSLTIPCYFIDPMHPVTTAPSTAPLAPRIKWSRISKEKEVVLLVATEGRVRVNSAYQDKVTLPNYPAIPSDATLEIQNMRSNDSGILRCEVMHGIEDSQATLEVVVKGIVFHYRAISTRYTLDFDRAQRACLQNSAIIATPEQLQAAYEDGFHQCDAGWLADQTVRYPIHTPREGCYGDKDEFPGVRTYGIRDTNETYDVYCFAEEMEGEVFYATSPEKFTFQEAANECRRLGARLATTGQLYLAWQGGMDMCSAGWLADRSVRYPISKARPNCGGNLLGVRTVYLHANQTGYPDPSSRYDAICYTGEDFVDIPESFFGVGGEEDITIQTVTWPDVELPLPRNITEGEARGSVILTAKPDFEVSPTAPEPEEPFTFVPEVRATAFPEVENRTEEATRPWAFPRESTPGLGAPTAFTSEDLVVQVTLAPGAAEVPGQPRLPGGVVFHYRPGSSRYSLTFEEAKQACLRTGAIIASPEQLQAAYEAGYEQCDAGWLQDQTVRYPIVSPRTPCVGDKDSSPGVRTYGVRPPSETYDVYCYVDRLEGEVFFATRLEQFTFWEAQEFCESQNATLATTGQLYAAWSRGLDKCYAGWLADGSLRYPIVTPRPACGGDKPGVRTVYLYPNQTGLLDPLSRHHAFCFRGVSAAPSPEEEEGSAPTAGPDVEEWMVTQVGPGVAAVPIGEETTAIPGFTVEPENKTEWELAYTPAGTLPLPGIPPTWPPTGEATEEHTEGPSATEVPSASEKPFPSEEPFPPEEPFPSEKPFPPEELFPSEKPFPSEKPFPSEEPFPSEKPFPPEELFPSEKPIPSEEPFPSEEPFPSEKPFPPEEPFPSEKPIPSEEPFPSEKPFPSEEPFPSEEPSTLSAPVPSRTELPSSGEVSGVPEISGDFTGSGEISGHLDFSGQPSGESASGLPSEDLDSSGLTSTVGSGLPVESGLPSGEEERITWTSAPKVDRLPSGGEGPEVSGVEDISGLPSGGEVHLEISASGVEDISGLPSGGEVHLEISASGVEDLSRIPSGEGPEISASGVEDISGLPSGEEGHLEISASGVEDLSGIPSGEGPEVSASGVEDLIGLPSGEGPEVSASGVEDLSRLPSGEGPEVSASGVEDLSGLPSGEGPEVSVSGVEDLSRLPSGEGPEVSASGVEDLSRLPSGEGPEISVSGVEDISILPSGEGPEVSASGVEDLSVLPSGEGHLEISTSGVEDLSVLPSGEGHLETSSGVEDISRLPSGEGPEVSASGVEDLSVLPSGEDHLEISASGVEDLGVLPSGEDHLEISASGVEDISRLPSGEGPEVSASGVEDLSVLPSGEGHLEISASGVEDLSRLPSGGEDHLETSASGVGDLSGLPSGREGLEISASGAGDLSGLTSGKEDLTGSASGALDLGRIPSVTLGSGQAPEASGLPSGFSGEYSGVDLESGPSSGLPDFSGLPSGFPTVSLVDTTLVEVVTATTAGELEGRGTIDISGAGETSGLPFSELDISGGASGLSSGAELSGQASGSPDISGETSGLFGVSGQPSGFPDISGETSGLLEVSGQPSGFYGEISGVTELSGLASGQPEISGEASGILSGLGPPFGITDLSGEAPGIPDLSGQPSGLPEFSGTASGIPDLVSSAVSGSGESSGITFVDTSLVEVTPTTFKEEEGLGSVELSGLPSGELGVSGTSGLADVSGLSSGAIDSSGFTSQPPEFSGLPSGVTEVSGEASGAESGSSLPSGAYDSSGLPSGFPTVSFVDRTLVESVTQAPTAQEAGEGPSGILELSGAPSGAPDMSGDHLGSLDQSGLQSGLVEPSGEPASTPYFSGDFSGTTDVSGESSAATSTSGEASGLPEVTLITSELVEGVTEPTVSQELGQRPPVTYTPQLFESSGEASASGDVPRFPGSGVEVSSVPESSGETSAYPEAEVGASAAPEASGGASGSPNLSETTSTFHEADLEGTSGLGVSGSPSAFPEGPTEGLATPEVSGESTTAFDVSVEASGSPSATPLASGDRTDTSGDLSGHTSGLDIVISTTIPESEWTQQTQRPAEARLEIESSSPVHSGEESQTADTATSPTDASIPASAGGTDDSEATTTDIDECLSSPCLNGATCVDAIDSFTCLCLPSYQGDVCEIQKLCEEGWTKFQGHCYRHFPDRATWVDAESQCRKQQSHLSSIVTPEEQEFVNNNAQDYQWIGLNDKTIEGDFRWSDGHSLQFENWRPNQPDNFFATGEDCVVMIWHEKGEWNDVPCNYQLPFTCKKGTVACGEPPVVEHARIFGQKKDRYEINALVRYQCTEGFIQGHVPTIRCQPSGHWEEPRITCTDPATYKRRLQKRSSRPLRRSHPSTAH
Description: as §1
BbHtrA cleaved recombinant human aggrecan (G1-IGD-G2 domains) within the IGD (FIG. 4A). Cleavage of recombinant aggrecan generated three high molecular weight proteolytic fragments which migrated at ˜110 kd, ˜60 kd and ˜50 kd.
BbHtrA also degraded native, fully glycosylated aggrecan (FIG. 4B, lane 5). Again, this degradation required BbHtrA catalytic activity (FIG. 4B, lane 6). The BbHtrA-generated aggrecan fragments appear to be a doublet, unlike those generated by HtrA1.
as §2
Reaction products were separated by SDS-PAGE and silver stained. Native collagen II and recombinant tenascin C were not degraded by BbHtrA indicating selectivity for proteoglycans, E-cadherin and fibronectin. FIG. 5 is an image of SDS-PAGE analysis showing that BbHtrA degrades aggrecan, neurocan, versican, brevican, biglycan, decorin, E-cadherin, and casein.

Neurocan = Neurocan (Homo sapiens, UniProt O14594); assay: BbHtrA proteolysis assay, neurocan substrate; type: biochemical; conditions: SDS-PAGE, FIG. 5
Chain of Neurocan (O14594 23-1321): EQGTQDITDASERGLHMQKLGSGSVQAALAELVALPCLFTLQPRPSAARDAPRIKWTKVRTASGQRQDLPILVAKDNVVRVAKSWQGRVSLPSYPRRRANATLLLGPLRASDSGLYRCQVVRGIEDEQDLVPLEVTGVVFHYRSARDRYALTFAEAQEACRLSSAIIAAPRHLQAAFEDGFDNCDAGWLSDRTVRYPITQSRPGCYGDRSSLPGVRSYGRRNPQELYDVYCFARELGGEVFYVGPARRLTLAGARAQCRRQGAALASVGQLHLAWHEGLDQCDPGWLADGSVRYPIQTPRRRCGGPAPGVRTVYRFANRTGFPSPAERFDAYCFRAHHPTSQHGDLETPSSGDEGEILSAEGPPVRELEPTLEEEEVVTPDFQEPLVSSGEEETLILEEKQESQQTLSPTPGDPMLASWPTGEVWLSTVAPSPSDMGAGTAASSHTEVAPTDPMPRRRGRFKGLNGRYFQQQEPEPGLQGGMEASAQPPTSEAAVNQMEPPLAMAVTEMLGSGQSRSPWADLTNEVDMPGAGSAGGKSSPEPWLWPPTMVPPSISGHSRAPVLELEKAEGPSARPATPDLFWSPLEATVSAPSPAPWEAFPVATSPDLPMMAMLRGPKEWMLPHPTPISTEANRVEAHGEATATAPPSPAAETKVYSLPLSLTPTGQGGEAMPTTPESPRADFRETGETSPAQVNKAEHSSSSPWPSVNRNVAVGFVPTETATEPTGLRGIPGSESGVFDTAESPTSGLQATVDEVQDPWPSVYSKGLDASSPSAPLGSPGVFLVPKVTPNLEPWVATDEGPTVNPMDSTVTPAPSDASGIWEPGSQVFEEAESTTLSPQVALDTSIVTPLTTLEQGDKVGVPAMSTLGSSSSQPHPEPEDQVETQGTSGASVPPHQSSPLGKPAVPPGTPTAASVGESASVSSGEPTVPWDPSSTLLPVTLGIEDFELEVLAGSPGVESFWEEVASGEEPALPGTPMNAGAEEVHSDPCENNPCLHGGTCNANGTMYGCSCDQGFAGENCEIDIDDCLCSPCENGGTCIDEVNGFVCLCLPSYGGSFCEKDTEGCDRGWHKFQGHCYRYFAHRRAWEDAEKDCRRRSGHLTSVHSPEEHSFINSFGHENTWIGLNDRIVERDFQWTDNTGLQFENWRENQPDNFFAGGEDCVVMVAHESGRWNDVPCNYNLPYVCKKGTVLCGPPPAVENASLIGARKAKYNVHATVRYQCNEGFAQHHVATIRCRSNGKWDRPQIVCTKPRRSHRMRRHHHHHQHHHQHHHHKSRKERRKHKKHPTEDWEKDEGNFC
Description: as §1, §2, §3

Brevican = molecular target: T3, Brevican (Homo sapiens, UniProt Q96GW7); assay: BbHtrA proteolysis assay, brevican substrate; type: biochemical; conditions: SDS-PAGE, FIG. 5
T3 sequence (Q96GW7 23-911): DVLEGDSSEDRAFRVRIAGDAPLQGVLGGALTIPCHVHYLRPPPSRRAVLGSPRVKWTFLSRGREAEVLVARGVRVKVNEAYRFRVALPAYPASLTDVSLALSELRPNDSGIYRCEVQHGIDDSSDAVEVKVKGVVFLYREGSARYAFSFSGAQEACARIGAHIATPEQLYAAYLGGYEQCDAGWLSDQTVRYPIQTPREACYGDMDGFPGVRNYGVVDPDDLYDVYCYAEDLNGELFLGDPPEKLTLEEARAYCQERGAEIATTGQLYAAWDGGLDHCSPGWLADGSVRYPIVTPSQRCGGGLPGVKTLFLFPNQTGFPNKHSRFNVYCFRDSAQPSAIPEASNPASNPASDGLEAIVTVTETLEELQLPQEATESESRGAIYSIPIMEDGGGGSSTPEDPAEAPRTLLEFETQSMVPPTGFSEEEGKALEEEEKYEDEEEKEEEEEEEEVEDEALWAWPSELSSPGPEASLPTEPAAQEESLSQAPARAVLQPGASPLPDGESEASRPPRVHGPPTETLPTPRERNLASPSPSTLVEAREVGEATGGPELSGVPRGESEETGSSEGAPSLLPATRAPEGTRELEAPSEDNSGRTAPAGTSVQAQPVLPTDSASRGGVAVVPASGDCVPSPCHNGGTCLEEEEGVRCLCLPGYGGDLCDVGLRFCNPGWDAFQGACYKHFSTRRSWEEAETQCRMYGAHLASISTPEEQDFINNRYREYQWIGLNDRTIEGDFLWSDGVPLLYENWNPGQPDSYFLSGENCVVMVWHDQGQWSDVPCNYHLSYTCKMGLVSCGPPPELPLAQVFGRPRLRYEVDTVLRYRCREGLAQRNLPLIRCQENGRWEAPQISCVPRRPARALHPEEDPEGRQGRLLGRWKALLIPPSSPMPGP
Description: as §1, §2, §3

E-cadherin = molecular target: T4, E-cadherin (Homo sapiens, UniProt P12830); assay: BbHtrA proteolysis assay, E-cadherin substrate; type: biochemical; conditions: SDS-PAGE, FIG. 5
T4 sequence (P12830 155-882): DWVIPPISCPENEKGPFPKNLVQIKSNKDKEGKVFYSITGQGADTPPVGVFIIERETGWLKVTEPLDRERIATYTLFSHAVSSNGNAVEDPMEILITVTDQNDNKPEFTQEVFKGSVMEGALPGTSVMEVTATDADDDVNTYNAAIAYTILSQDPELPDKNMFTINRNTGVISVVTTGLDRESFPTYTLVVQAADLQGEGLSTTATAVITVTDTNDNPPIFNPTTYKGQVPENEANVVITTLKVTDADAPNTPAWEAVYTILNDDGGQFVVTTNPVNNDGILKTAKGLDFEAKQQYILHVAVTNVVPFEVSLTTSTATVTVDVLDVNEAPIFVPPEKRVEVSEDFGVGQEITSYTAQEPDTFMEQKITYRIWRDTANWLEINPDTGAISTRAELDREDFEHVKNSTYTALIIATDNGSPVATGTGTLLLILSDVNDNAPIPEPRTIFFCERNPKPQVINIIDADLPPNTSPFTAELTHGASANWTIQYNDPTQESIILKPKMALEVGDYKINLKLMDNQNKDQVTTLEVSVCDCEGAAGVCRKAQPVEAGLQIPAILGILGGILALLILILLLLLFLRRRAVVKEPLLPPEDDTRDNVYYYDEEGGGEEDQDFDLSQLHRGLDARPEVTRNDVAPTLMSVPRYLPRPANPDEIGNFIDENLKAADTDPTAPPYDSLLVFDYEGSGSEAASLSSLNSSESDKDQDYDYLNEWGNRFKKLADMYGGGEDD
Description: as §1, §2, §3

Biglycan = assay: BbHtrA proteolysis assay, biglycan substrate; type: biochemical, bovine, human; conditions: SDS-PAGE, FIG. 5
Description: as §1, §2, §3

Plasma fibronectin = assay: BbHtrA proteolysis assay, plasma fibronectin substrate; type: biochemical, human; conditions: incubated overnight or 96 hours, SDS-PAGE, FIG. 8A
Description: as §1
BbHtrA generates pro-inflammatory amino terminal (Fnf-29) and carboxyl terminal (FnIII13-14) fibronectin fragments. […] Fibronectin was incubated with BbHtrA overnight (FIG. 8A, lane 1) or for 96 hours (FIG. 8A, lane 3). Reaction products were separated electrophoretically, and the bands were excised and analyzed by tandem LC MS/MS, FIG. 8B.

T1 sequence (P02458 182-1241 limits assumed): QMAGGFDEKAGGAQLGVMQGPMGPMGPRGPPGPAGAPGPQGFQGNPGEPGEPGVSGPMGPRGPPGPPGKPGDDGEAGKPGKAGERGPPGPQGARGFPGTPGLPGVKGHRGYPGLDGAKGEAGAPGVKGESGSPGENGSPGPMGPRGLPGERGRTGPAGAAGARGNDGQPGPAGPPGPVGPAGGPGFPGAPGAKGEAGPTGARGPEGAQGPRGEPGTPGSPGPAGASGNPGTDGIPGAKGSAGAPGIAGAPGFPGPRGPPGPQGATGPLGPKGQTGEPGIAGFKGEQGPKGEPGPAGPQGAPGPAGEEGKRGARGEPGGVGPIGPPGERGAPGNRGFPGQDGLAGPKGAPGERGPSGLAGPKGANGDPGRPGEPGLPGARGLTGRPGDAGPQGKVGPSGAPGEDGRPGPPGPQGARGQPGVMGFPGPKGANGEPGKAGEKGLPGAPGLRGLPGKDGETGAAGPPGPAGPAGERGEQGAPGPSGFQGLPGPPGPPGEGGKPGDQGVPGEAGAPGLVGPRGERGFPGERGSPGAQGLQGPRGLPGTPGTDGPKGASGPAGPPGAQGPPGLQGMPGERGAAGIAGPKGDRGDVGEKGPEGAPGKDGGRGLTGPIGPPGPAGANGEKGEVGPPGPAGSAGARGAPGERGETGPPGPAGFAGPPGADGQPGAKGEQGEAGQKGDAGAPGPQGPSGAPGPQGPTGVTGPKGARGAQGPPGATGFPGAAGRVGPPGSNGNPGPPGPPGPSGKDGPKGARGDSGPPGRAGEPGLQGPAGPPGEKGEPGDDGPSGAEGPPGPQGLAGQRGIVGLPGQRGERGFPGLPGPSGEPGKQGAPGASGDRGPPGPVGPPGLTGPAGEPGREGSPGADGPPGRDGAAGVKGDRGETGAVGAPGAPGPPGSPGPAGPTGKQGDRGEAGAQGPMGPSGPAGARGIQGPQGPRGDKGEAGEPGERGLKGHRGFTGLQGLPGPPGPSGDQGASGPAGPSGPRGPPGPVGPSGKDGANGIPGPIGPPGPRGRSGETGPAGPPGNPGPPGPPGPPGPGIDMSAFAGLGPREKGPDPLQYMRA

B1: BbHtrA: Recombinant wild type B. burgdorferi HtrA serine protease, mature protein amino acids 38-474, expressed in E. coli (SEQ ID NO:1, 9) (protein, listed as Borrelia burgdorferi)
chain: EEKDNTVRALQDSFREVSKKILPSSVEVHATGVIKQSFPIPFFFFDMPEFDSERKSNWAGSGVIIGRDSQKKSLFYVVTNSHVVDKATELEVVSYDKKKHKAKLIGKDEKKDIALISFESDDATIKVADLGDSDKLEIGDWVMAVGSPFQFSFTVTAGIVSGLQRSANPNLQSRNLFIQTDAAINRGNSGGPLVNIKGEVIGINAWIASNSGGNIGLGFAIPVNNIKSTVDFFLKGKKIESAWLGISFYPLKTRDSEVLKSLGVESNDVSAAIIASLYPGSPAVKSGLRAGDIIMKVNGVSMSVFQDVTSYISDFYAGEKVNVEILRGNVKKNIEIVLAVRPKDKELSSSKMLPGFVVYPLVEDIKAQLNLRNWIKGVVVDYIDKNLASNIKMKSGDVILSVNSKSVSNLREFYDALEVGKNTYKILRGNDSFKITF
Question: For B1, which “Degradation of native collagen II” value (Collagen type II) is on record?
Answer: not degraded

Question: And the “Degradation of native, fully glycosylated aggrecan” value (Aggrecan)?
Answer: degraded

Question: And the Degradation of neurocan (Neurocan)?
Answer: degrades

Question: What about the Degradation of brevican (Brevican) of the same molecule?
Answer: degrades

Question: What about the “Degradation of E-cadherin” value (E-cadherin) of the same molecule?
Answer: degrades

Question: And the Degradation of biglycan (Biglycan)?
Answer: degrades

Question: What about the Degradation of fibronectin (Plasma fibronectin) of the same molecule?
Answer: yielded distinct product bands
